Changes are numbered by the printed parent chain. In names and notes the source's numbering stands.
B1: PR004128 (antibody, human IgG1, kappa)
heavy: not shown
light: DIVMTQAAPSVPVTPGESVSISCRSSKSLLHSNGKIYLYWFLQRPGQSPQLLIYRMSNLASGVPDRFSGSGSGTAFTLRISRVEAEDVGVYYCMQHLEYPLTFGAGTKLEIKRTVAAPSVFIFPPSDEQLKSGTASVVCLLNNFYPREAKVQWKVDNALQSGNSQESVTEQDSKDSTYSLSSTLTLSKADYEKHKVYACEVTHQGLSSPVTKSFNRGEC
notes: chimeric, human IgG1 constant region; also called RP004128; PRO4128
B2: PR004121 (antibody, human IgG1, kappa, V domains shown)
VH: EVQLVESGGGLVQPKGSLKLSCAASGFTFNTYAMNWVRQAPGKGLEWVARIRSKSNNYATYYADSVKDRFTISRDDSQNMLYLQMNNLKTEDTAMYYCVRGKENGNYYAMDFWGQGTSVTVSS
VL: DIVITQAAPSVPVTPGESVSISCRSSKSLLHSNGNTYLYWFLQRPGQSPQLLIYRMSNLASGVPDRFSGSGSGTAFTLRISRVEAEDVGVYYCMQHLEYPFTFGGGTKLEMKR
notes: chimeric, human IgG1 constant region
B3: PR004125 (antibody, human IgG1, kappa)
heavy: not shown
light: B1 light with K35N, I36T, I111M
notes: as for B2
B4: PR004131 (antibody, human IgG1, kappa)
heavy: not shown
light: B1 light with S26N, K35N, I36T
notes: as for B2
B5: PR006275AF (antibody, human IgG1, kappa)
heavy: not shown
light: DIVMTQSPLSLPVTLGQPASISCRSSKSLLHSNAKIYLYWFQQRPGQSPRLLIYRMSNLASGVPDRFSGSGSGTDFTLKISRVEAEDVGVYYCMQHLEYPLTFGQGTKLEIKRTVAAPSVFIFPPSDEQLKSGTASVVCLLNNFYPREAKVQWKVDNALQSGNSQESVTEQDSKDSTYSLSSTLTLSKADYEKHKVYACEVTHQGLSSPVTKSFNRGEC
modifications: afucosylated (AF) Fc glycan, produced with 2-fluoro peracetylated fucose
notes: also called PR00PR006275AF; R00PR006275AF
B6: PR006276AF (antibody, human IgG1, kappa)
heavy: not shown
light: B5 light
modifications: afucosylated (AF) Fc glycan, produced with 2-fluoro peracetylated fucose
B7: PR005170 (antibody, human IgG1, kappa, V domains shown)
VH: B2 VH with N79S, S123A
VL: B2 VL with I4M, N35K, T36I, F101I, G105A, M111I
notes: heavy chain entry as PR004128
B8: PR005763 (Fab, V domains shown)
VH: EVQLVESGGGLVKPGGSLRLSCAASGFTFSTYAMNWVRQAPGKGLEWVGRIRSKSNYYATYYADSVKDRFTISRDDSKSTLYLQMNSLKTEDTAVYYCVRGKEHGKYYAMDFWGQGTTVTVSS
VL: DIVMTQSPLSLPVTLGQPASISCRSSKSLLHSNAKIYLYWFQQRPGQSPRLLIYRMSNLASGVPDRFSGSGSGTDFTLKISRVEAEDVGVYYCMQHLEYPLTFGQGTKLEIKR
B9: PR005787 (Fab, V domains shown)
VH: B8 VH with H104I
VL: B8 VL
B10: PR004250 (antibody, human IgG1, kappa)
heavy: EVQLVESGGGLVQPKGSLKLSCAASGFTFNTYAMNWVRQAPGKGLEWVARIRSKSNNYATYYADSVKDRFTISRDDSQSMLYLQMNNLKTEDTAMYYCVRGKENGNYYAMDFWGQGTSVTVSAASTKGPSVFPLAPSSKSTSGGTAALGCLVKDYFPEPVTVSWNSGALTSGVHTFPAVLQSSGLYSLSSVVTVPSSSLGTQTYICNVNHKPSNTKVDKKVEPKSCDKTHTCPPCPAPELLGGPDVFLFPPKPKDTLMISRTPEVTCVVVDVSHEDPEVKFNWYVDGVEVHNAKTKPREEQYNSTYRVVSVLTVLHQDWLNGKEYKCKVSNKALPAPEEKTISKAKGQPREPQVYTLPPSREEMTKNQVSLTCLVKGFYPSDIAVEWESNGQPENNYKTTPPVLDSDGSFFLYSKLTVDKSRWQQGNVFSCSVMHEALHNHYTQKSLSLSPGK
light: B1 light with K35N, I36T, I111M
notes: PR004125 with S239D and I332E (DE) in the IgG1 constant region

The binders below were run against T1, human CCR8 (human, UniProt P51685 1-355) (assay: FACS competition on HEK293-hCCR8 cells against a biotin-labelled anti-CCR8 antibody at its EC80; the labelled antibody of this panel is not named on the sheet).
T1 construct: whole, on cells; construct used for the overexpressing cell lines is not described; also called hCCR8
T1 sequence (P51685 whole entry): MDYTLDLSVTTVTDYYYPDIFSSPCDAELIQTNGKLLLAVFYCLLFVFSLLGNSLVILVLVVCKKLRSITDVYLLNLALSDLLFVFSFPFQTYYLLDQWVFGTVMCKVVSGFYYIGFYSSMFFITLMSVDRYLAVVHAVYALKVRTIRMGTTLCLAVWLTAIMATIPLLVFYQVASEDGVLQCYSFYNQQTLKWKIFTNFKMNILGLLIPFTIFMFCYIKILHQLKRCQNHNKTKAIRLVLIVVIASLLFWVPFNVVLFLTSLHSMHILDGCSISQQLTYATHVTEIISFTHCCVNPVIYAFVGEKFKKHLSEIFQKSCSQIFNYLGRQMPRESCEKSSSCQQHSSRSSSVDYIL
Experimental: (§1) The antibody was conjugated with Sulfo-NHS-LC-Biotin at a molar ratio of 5:1 (1 mol antibody was added to 5 mol Sulfo-NHS-LC-Biotin) with reference to the product instructions (ThermoFisher, Cat No. A39257) and incubated on ice for 2 h. The coupled antibody was purified with a Zeba desalting column (ThermoFisher, Cat No. 89882). Cells overexpressing human CCR8, HEK293-hCCR8, were added to a V-bottom 96-well plate at a density of 1E5 cells/well and centrifuged at 300 g for 5 min, and the supernatant was discarded. The competitive antibody was serially diluted in a ratio of 1:10 from 200 nM to obtain 8 concentration points. The Biotin-antibody and the competition antibody were mixed in a 1:1 ratio on an HEK293 cell line overexpressing human CCR8 by the binding EC₈₀ concentration. The cells in the 96-well plate were resuspended and incubated at 4° C. for 1 h. The plate was washed twice with DPBS at 200 μL/well. The secondary antibody diluted in a 1:1000 ratio was added at 100 μL/well, and the mixture was incubated at 4° C. for 40 min. The plate was washed twice with DPBS at 200 μL/well. Finally, DPBS was […] at 200 μL/well to suspend the cells, and the mixture was loaded on an FACS machine for analysis.
In the case of B1, the “IC50 (read off the curve)” value is reported as about 2 nM. B2 was tested, and the “IC50 (read off the curve)” value was about 2 nM. B3 was tested, and the “IC50 (read off the curve)” value was about 2 nM. With B4 the “IC50 (read off the curve)” value was about 2 nM.

Each binder was assayed against T2, cynomolgus monkey CCR8 (cynomolgus monkey, UniProt G7NYJ2 1-355) (assay: FACS, CHO-K1-CynoCCR8 cells).
T2 construct: whole, on cells; also called CynoCCR8
T2 sequence (G7NYJ2 entry or part of it): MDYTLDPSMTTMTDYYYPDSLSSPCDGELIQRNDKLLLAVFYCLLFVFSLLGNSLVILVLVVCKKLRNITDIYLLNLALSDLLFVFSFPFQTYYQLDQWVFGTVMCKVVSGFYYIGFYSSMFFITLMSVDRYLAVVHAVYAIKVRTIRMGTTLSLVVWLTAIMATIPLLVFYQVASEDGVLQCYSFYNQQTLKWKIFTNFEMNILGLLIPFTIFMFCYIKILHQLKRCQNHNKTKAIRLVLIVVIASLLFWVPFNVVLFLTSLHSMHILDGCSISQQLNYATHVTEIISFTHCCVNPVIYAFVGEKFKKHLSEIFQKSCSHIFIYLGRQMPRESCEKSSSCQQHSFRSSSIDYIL
Experimental: (§2) Cells overexpressing cynomolgus monkey CCR8, CHO-K1-CynoCCR8, were digested with pancreatin, counted and resuspended to a cell density of 1E6 cells/mL. The cell suspension was added to a 96-well V-bottom plate at 100 μL/well and centrifuged at 300 g for 5 min, and the supernatant was discarded. The anti-CCR8 antibodies provided herein was used as a primary antibody and diluted in a 5-fold gradient with an FACS buffer (DPBS containing 2% FBS) from 200 nM. The diluted primary antibody was added at 100 μL/well to resuspend the cells, and the mixture was incubated at 4° C. for 1 h. The plate was washed twice with DPBS and centrifuged at 300×g for 5 min, and the supernatant was discarded. The secondary antibody diluted in a 1:1000 ratio with an FACS buffer was added at 100 μL/well to suspend the cells, and the mixture was incubated at 4° C. for 40 min. The plate was washed twice with DPBS and centrifuged at 300×g for 5 min, and the supernatant was discarded. DPBS was added at 200 μL/well to suspend the cells, and the mixture was loaded on an FACS machine for analysis.
With B1 the EC50 was 0.83 nM. B3 gave an EC50 of 1.16 nM. B4 was tested, and the EC50 was 1.6 nM. Binder B5 has an EC50 of 0.51 nM. B6 showed an EC50 of 0.5 nM.

Each binder was assayed against T1, human CCR8 (assay: FACS, HEK293-hCCR8 cells).
Experimental: as §2, with “human CCR8” for “cynomolgus monkey CCR8, CHO-K1-CynoCCR8,”
With B1 the EC50 was 0.87 nM. Work on B2 yielded an EC50 of 0.63 nM. B3 was tested, and the EC50 was 0.72 nM. In the case of B4, the EC50 is reported as 0.79 nM.

What follows are binders tested against T1, human CCR8 (assay: FACS, CHO-K1-hCCR8 cells).
Procedure, shortened: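 Binding was measured on intact cells by two-step staining at 4 °C. Test antibodies were applied from 200 nM in 5-fold steps for 1 h, and a secondary reagent at 1:1000 for 40 min, before analysis on a FACS instrument.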
Work on B1 yielded an EC50 of 0.42 nM. B2 gave an EC50 of 0.41 nM. B3 was tested, and the EC50 was 0.5 nM. B4 showed an EC50 of 0.52 nM. B5 showed an EC50 of 0.4 nM. Binder B6 has an EC50 of 0.39 nM.

Target: T2, cynomolgus monkey CCR8
Test: FACS, CHO-K1-CynoCCR8 cells
Remark: another data set of the same source
Experimental: as §2
B1 was tested, and the EC50 was 2.26 nM.

Target: T1, human CCR8
Test: FACS, CHO-K1-hCCR8 cells
Remark: another data set of the same source
Experimental: as §2, with “human CCR8” for “cynomolgus monkey CCR8, CHO-K1-CynoCCR8,”
In the case of B1, the EC50 is reported as 0.91 nM.

Target: T2, cynomolgus monkey CCR8
Test: FACS, CHO-K1-CynoCCR8 cells
Remark: another data set of the same source
Experimental: as §2
B1 gave an EC50 of 4.73 nM.

What follows are binders tested against T1, human CCR8 (assay: FACS, Baf3-hCCR8 cells).
Experimental: as §2, with “human CCR8” for “cynomolgus monkey CCR8, CHO-K1-CynoCCR8,”
For B1, the EC50 was 0.14 nM. B2 was tested, and the EC50 was 0.22 nM. Binder B3 has an EC50 of 0.21 nM. Binder B4 has an EC50 of 0.2 nM.

Target: T1, human CCR8
Test: FACS, CHO-K1-hCCR8 cells
Remark: another data set of the same source
Experimental: as §2, with “human CCR8” for “cynomolgus monkey CCR8, CHO-K1-CynoCCR8,”
B1 was tested, and the EC50 was 2.54 nM.

Each binder was assayed against T1, human CCR8 (assay: FACS on CHO-K1 cells overexpressing human CCR8).
Experimental: as §2, with “human CCR8” for “cynomolgus monkey CCR8, CHO-K1-CynoCCR8,”
In the case of B7, the “EC50 (read off the curve)” value is reported as about 1 nM.

Target: T1, human CCR8
Test: FACS competition on HEK293-hCCR8 cells against a biotin-labelled anti-CCR8 antibody at its EC80; the labelled antibody of this panel is not named on the sheet
Remark: another data set of the same source
Experimental: as §1
B1 was tested, and the “IC50 (read off the curve)” value was about 2 nM. For B2, the “IC50 (read off the curve)” value was about 2 nM. B3 was tested, and the “IC50 (read off the curve)” value was about 2 nM. With B4 the “IC50 (read off the curve)” value was about 2 nM.

What follows are binders tested against T1, human CCR8 (assay: FACS, CHO-K1-hCCR8 cells, Fab).
Experimental: as §2, with “human CCR8” for “cynomolgus monkey CCR8, CHO-K1-CynoCCR8,”
B8 showed an EC50 of 0.62 nM. B9 gave an EC50 of 0.74 nM.

Target: T1, human CCR8
Test: FACS competition on HEK293-hCCR8 cells against a biotin-labelled anti-CCR8 antibody at its EC80; the labelled antibody of this panel is not named on the sheet
Remark: another data set of the same source
Experimental: as §1
For B1, the “IC50 (read off the curve)” value was 1 to 2 nM. In the case of B2, the “IC50 (read off the curve)” value is reported as 1 to 2 nM. With B3 the “IC50 (read off the curve)” value was 1 to 2 nM. With B4 the “IC50 (read off the curve)” value was 1 to 2 nM.

These binders were tested against T1, human CCR8 (assay: cell-based or functional assay).
B3 was tested, and the “EC50, ADCC reporter gene activity (Jurkat/FcγR III-NFAT effector cells)” value (from here on “EC50, ADCC reporter gene activity”) was 0.59 nM. With B10 the “EC50, ADCC reporter gene activity” value was 0.04 nM. B5 was tested, and the “EC50, ADCC reporter gene activity” value was 2.6 nM. With B6 the “EC50, ADCC reporter gene activity” value was 1.66 nM.

Target: T1, human CCR8
Test: cell-based or functional assay
Remark: another data set of the same source
With B1 the “Bottom %, blocking of CCL1-stimulated calcium flux” value was 7% and the “IC50(nM), blocking of CCL1-stimulated calcium flux” value was 1.51 nM. B2 was tested, and the “Bottom %, blocking of CCL1-stimulated calcium flux” value was 0% and the “IC50(nM), blocking of CCL1-stimulated calcium flux” value was 1.44 nM. B3 was tested, and the “Bottom %, blocking of CCL1-stimulated calcium flux” value was 23% and the “IC50(nM), blocking of CCL1-stimulated calcium flux” value was 1.16 nM. For B4, the “Bottom %, blocking of CCL1-stimulated calcium flux” value was 0% and the “IC50(nM), blocking of CCL1-stimulated calcium flux” value was 1.67 nM.

Target: T1, human CCR8
Test: FACS, CHO-K1-hCCR8 cells
Remark: another data set of the same source
Experimental: as §2, with “human CCR8” for “cynomolgus monkey CCR8, CHO-K1-CynoCCR8,”
B1 gave an EC50 of 0.55 nM.

Target: T1, human CCR8
Test: FACS competition on HEK293-hCCR8 cells against a biotin-labelled anti-CCR8 antibody at its EC80; the labelled antibody of this panel is not named on the sheet
Remark: another data set of the same source
Experimental: as §1
In the case of B1, the “IC50 (read off the curve)” value is reported as about 2 nM. B2 was tested, and the “IC50 (read off the curve)” value was about 2 nM. In the case of B3, the “IC50 (read off the curve)” value is reported as about 2 nM. In the case of B4, the “IC50 (read off the curve)” value is reported as about 2 nM.

Target: T1, human CCR8
Test: as above
Remark: another data set of the same source
Experimental: as §1
In the case of B1, the “IC50 (read off the curve)” value is reported as about 3 nM. In the case of B2, the “IC50 (read off the curve)” value is reported as about 3 nM. B3 was tested, and the “IC50 (read off the curve)” value was about 3 nM. For B4, the “IC50 (read off the curve)” value was about 3 nM.

Target: T2, cynomolgus monkey CCR8
Test: FACS, CHO-K1-CynoCCR8 cells
Remark: another data set of the same source
Experimental: as §2
With B1 the EC50 was 7.39 nM. Binder B3 has an EC50 of 2.44 nM. Binder B4 has an EC50 of 8.65 nM. Work on B10 yielded an EC50 of 3.5 nM.

Target: T1, human CCR8
Test: FACS, HEK293-hCCR8 cells
Remark: another data set of the same source
Experimental: as §2, with “human CCR8” for “cynomolgus monkey CCR8, CHO-K1-CynoCCR8,”
With B1 the EC50 was 4.53 nM. B2 was tested, and the EC50 was 0.9 nM. B3 showed an EC50 of 0.66 nM. B4 was tested, and the EC50 was 1.94 nM. B10 was tested, and the EC50 was 1.66 nM.
